Source: the supplement of paper PMC9876800

tested on: peptide library, one residue held at a place counted from the S/T acceptor; experiment: relative phosphorylation of the sub-library (ratio to the mean residue at this position); human; higher = residue favoured; settings: A fixed; at +1
Procedure, shortened: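 Purified recombinant kinases (human or orthologue constructs) were incubated in 384-well plates with biotinylated degenerate peptide sub-libraries, each fixing one residue at one position around a central Ser/Thr. Peptides were at 50 μM, with 50 μM ATP spiked with γ-32P-ATP, for 90 min under kinase-specific conditions. Spots on streptavidin membranes were phosphorimaged and quantified by densitometry. Relative sub-library phosphorylation is a ratio to the mean residue at that position.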

Sequence of STK10, construct: aa18-317 (O94804 18-317, looked up): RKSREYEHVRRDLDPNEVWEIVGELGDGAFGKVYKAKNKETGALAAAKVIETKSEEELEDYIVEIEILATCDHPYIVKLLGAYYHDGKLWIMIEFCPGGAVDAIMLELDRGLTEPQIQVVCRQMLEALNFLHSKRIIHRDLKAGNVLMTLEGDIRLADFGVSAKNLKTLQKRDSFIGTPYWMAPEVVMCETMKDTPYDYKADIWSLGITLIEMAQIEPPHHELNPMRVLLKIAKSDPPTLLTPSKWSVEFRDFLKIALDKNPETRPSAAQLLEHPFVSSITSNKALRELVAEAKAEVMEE
Sequence of PAK2, construct: aa3-end (Q13177 3-524, looked up): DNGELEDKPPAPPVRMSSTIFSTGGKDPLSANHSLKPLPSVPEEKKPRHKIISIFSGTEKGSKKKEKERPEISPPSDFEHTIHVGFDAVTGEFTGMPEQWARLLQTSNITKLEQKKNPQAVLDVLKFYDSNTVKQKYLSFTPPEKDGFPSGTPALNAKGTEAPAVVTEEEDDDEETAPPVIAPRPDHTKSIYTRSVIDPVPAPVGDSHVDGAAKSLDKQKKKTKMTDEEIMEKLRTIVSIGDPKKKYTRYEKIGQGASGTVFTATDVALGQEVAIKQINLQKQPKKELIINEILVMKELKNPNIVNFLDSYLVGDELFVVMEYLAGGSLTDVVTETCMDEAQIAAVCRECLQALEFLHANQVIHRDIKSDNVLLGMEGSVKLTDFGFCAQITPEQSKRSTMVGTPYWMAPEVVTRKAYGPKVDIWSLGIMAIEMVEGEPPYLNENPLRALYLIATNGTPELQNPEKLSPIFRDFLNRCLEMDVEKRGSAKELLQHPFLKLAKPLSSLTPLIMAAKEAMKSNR
Sequence of CSNK2A1, construct: Full length (P68400 whole entry, looked up): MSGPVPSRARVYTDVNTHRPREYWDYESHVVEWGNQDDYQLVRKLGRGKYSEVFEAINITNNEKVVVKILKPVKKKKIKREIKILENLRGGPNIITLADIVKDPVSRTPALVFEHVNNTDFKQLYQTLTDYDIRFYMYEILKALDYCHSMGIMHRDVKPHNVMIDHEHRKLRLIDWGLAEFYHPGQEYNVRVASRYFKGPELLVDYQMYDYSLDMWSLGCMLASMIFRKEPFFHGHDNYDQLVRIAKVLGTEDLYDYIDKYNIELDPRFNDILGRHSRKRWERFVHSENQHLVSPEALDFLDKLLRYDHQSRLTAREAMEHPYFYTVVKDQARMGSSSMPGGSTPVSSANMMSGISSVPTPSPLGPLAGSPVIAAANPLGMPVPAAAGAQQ
Sequence of NEK1, construct: aa1-505 (Q96PY6 1-505, looked up): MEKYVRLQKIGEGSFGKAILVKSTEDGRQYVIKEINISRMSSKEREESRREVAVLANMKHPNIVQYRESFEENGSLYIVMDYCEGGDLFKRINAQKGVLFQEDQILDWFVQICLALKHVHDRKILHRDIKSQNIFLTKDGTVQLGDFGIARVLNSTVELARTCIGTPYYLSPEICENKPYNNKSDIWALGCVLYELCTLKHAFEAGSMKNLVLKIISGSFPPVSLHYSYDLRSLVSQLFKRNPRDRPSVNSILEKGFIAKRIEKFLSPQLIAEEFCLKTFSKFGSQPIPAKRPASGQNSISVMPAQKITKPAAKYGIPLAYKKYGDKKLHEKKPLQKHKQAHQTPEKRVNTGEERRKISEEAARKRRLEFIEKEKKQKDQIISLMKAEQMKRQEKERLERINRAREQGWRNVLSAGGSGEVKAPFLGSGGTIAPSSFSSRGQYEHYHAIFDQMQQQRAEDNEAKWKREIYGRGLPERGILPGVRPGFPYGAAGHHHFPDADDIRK

| Substance | relative phosphorylation |
| --- | --- |
| CSNK2A1, construct: Full length (from UniProt P68400) | 0.479 |
| NEK1, construct: aa1-505 (from UniProt Q96PY6) | 0.882 |
| PAK2, construct: aa3-end (from UniProt Q13177) | 0.794 |
| PRKCG, construct: Full length (from UniProt P05129) | 0.569 |
| STK10, construct: aa18-317 (from UniProt O94804) | 0.6 |
| STK39, construct: Full length (from UniProt Q9UEW8) | 0.382 |

same assay, conditions: A fixed; at +2

| Substance | relative phosphorylation |
| --- | --- |
| CSNK2A1, construct: Full length (from UniProt P68400) | 1.2 |
| NEK1, construct: aa1-505 (from UniProt Q96PY6) | 1.08 |
| PAK2, construct: aa3-end (from UniProt Q13177) | 0.823 |
| PRKCG, construct: Full length (from UniProt P05129) | 0.495 |
| STK10, construct: aa18-317 (from UniProt O94804) | 0.853 |
| STK39, construct: Full length (from UniProt Q9UEW8) | 0.623 |

same assay, conditions: A fixed; at +3

| Substance | relative phosphorylation |
| --- | --- |
| CSNK2A1, construct: Full length (from UniProt P68400) | 0.406 |
| NEK1, construct: aa1-505 (from UniProt Q96PY6) | 0.91 |
| PAK2, construct: aa3-end (from UniProt Q13177) | 0.781 |
| PRKCG, construct: Full length (from UniProt P05129) | 0.701 |
| STK10, construct: aa18-317 (from UniProt O94804) | 0.817 |
| STK39, construct: Full length (from UniProt Q9UEW8) | 0.889 |

same assay, conditions: A fixed; at +4

| Substance | relative phosphorylation |
| --- | --- |
| CSNK2A1, construct: Full length (from UniProt P68400) | 0.847 |
| NEK1, construct: aa1-505 (from UniProt Q96PY6) | 1.02 |
| PAK2, construct: aa3-end (from UniProt Q13177) | 0.846 |
| PRKCG, construct: Full length (from UniProt P05129) | 0.922 |
| STK10, construct: aa18-317 (from UniProt O94804) | 0.9 |
| STK39, construct: Full length (from UniProt Q9UEW8) | 0.918 |

same assay, conditions: A fixed; at -1

| Substance | relative phosphorylation |
| --- | --- |
| CSNK2A1, construct: Full length (from UniProt P68400) | 0.867 |
| NEK1, construct: aa1-505 (from UniProt Q96PY6) | 1.2 |
| PAK2, construct: aa3-end (from UniProt Q13177) | 0.808 |
| PRKCG, construct: Full length (from UniProt P05129) | 0.946 |
| STK10, construct: aa18-317 (from UniProt O94804) | 0.811 |
| STK39, construct: Full length (from UniProt Q9UEW8) | 0.783 |

same assay, conditions: A fixed; at -2

| Substance | relative phosphorylation |
| --- | --- |
| CSNK2A1, construct: Full length (from UniProt P68400) | 1.02 |
| NEK1, construct: aa1-505 (from UniProt Q96PY6) | 1 |
| PAK2, construct: aa3-end (from UniProt Q13177) | 0.606 |
| PRKCG, construct: Full length (from UniProt P05129) | 0.862 |
| STK10, construct: aa18-317 (from UniProt O94804) | 0.667 |
| STK39, construct: Full length (from UniProt Q9UEW8) | 0.729 |

same assay, conditions: A fixed; at -3

| Substance | relative phosphorylation |
| --- | --- |
| CSNK2A1, construct: Full length (from UniProt P68400) | 0.979 |
| NEK1, construct: aa1-505 (from UniProt Q96PY6) | 0.996 |
| PAK2, construct: aa3-end (from UniProt Q13177) | 0.786 |
| PRKCG, construct: Full length (from UniProt P05129) | 0.699 |
| STK10, construct: aa18-317 (from UniProt O94804) | 0.873 |
| STK39, construct: Full length (from UniProt Q9UEW8) | 0.996 |

same assay, conditions: A fixed; at -4

| Substance | relative phosphorylation |
| --- | --- |
| CSNK2A1, construct: Full length (from UniProt P68400) | 1.01 |
| NEK1, construct: aa1-505 (from UniProt Q96PY6) | 1.04 |
| PAK2, construct: aa3-end (from UniProt Q13177) | 0.97 |
| PRKCG, construct: Full length (from UniProt P05129) | 1.09 |
| STK10, construct: aa18-317 (from UniProt O94804) | 0.975 |
| STK39, construct: Full length (from UniProt Q9UEW8) | 1 |

same assay, conditions: A fixed; at -5

| Substance | relative phosphorylation |
| --- | --- |
| CSNK2A1, construct: Full length (from UniProt P68400) | 1.09 |
| NEK1, construct: aa1-505 (from UniProt Q96PY6) | 0.968 |
| PAK2, construct: aa3-end (from UniProt Q13177) | 1.05 |
| PRKCG, construct: Full length (from UniProt P05129) | 1.16 |
| STK10, construct: aa18-317 (from UniProt O94804) | 1.15 |
| STK39, construct: Full length (from UniProt Q9UEW8) | 1.13 |

same assay, conditions: D fixed; at +1

| Substance | relative phosphorylation |
| --- | --- |
| CSNK2A1, construct: Full length (from UniProt P68400) | 9.09 |
| NEK1, construct: aa1-505 (from UniProt Q96PY6) | 0.22 |
| PAK2, construct: aa3-end (from UniProt Q13177) | 0.359 |
| PRKCG, construct: Full length (from UniProt P05129) | 0.22 |
| STK10, construct: aa18-317 (from UniProt O94804) | 0.168 |
| STK39, construct: Full length (from UniProt Q9UEW8) | 0.233 |

same assay, conditions: D fixed; at +2

| Substance | relative phosphorylation |
| --- | --- |
| CSNK2A1, construct: Full length (from UniProt P68400) | 3.13 |
| NEK1, construct: aa1-505 (from UniProt Q96PY6) | 0.456 |
| PAK2, construct: aa3-end (from UniProt Q13177) | 0.391 |
| PRKCG, construct: Full length (from UniProt P05129) | 0.261 |
